Assay results as given in article PMC10718521, “Complexity of αvβ6-integrin targeting RGD peptide trimers: emergence of non-specific binding by synergistic interaction” (RSC Medicinal Chemistry, 2023).

Legend:
[1] = assay type: physicochemical; conditions: pH 7.4
Description: The trimers were labeled with ^68Ga for biodistribution and small-animal PET experiments employing a fully automated method.[39] Non-radioactive reference compounds were obtained by complexation of equimolar amounts of ^natGa^3+ in form of the aq. chloride solution.[39] The polarity of the ^68Ga or ^natGa^3+ containing conjugates, respectively, was assessed by two established proxies, namely the n-octanol/water distribution coefficient at pH 7.4, log D7.4, and the retention time tR on a reverse-phase HPLC column with a suitable liquid-phase gradient (10–50% acetonitrile in water with 0.1% trifluoroacetic acid) (see Fig. 2a). […] A measurable decrease of the log D7.4 was only observed for ≥3 Tyr. […]
(§1) Unless otherwise noted, the materials and the instrumentation used (analytical and preparative HPLC, ESI-MS, gamma counter, centrifuge), and the experimental procedures (^68Ga radiolabeling and radio-TLC for quality control, determination of log D7.4, cultivation of H2009 human lung adenocarcinoma cells, generation of tumor xenografts in CB17 SCID mice, small-animal PET, and biodistribution) were described before.[19] All animal experiments have been carried out according to applicable law and institutional guidelines of Technical University of Munich, and were approved by the responsible local authority (Regierung von Oberbayern). The H2009 cells were regularly authenticated and tested for mycoplasma contamination. The affinities of the pentynoic amide functionalized peptides were determined employing a well-established ELISA protocol on immobilized integrins.[36] TRAP-triazide,[38]FF (previously termed AvB6),[32] and YY (also referred to as Tyr2-alkyne)[33] were synthesized as described previously. RP-HPLC for assessment of compound polarity was done on a 150 × 4.6 mm ReproSil-Pur 120 C18-AQ 5 μm column, with a flow of 0.75 mL min^−1 and a gradient of 10–50% MeCN in water, both containing 0.1% trifluoroacetic acid, within 15 min. The required ^natGa-complexes of the peptide trimers were synthesized by reaction with equimolar amounts of aq. GaCl3 as described.[19]

in vivo = test: in vivo; parameters: species or system mice; conditions: CB17 SCID, mouse, total radioactivity
Excerpt: The biodistribution of all ^68Ga-labeled peptide trimers was investigated in severe combined immunodeficiency (SCID) mice bearing subcutaneous xenografts of the αvβ6-integrin expressing human lung adenocarcinoma cell line H2009 on their right shoulders.
as §1

[2] = tumor/organ ratio Heart (myocard)
[3] = tumor/organ ratio Large intestine (empty)
[4] = tumor/organ ratio Small intestine (empty)
[5] = tumor/organ ratio Stomach (empty)

SMILES	log D7.4 [1]	logD [1]	tissue uptake at 1.5 h (in vivo; Adrenals uptake)	tissue uptake at 1.5 h (in vivo; Blood uptake)	tissue uptake at 1.5 h (in vivo; Heart (myocard) uptake)	tissue uptake at 1.5 h (in vivo; Kidneys uptake)	tissue uptake at 1.5 h (in vivo; Large intestine (empty) uptake)	tissue uptake at 1.5 h (in vivo; Liver uptake)	tissue uptake at 1.5 h (in vivo; Lung uptake)	tissue uptake at 1.5 h (in vivo; Muscle uptake)	tissue uptake at 1.5 h (in vivo; Pancreas uptake)	tissue uptake at 1.5 h (in vivo; Small intestine (empty) uptake)	tissue uptake at 1.5 h (in vivo; Spleen uptake)	tissue uptake at 1.5 h (in vivo; Stomach (empty) uptake)	tissue uptake at 1.5 h (in vivo; Tumor H2009 uptake)	tissue to tissue ratio at 1.5 h (in vivo; tumor/organ ratio Adrenals)	tissue to tissue ratio at 1.5 h (in vivo; tumor/organ ratio Blood)	tissue to tissue ratio at 1.5 h (in vivo; [2])	tissue to tissue ratio at 1.5 h (in vivo; tumor/organ ratio Kidneys)	tissue to tissue ratio at 1.5 h (in vivo; [3])	other results
CC(C)C[C@@H]1NC(=O)[C@H](CC(=O)O)NC(=O)CNC(=O)[C@H](CCCNC(=N)N)NC(=O)[C@H](Cc2ccccc2)NC(=O)[C@H](CCCCNC(=O)CCc2cn(CCCNC(=O)CCP(=O)(O)CN3CCN(CP(=O)(O)CCC(=O)NCCCn4cc(CCC(=O)NCCCC[C@H]5C(=O)N[C@@H](Cc6ccccc6)C(=O)N[C@@H](CCCNC(=N)N)C(=O)NCC(=O)N[C@@H](CC(=O)O)C(=O)N[C@@H](CC(C)C)C(=O)N[C@@H](C)C(=O)N[C@@H](Cc6ccc(O)cc6)C(=O)N6CCC[C@@H]6C(=O)N5C)nn4)CCN(CP(=O)(O)CCC(=O)NCCCn4cc(CCC(=O)NCCCC[C@H]5C(=O)N[C@@H](Cc6ccccc6)C(=O)N[C@@H](CCCNC(=N)N)C(=O)NCC(=O)N[C@@H](CC(=O)O)C(=O)N[C@@H](CC(C)C)C(=O)N[C@@H](C)C(=O)N[C@@H](Cc6ccc(O)cc6)C(=O)N6CCC[C@@H]6C(=O)N5C)nn4)CC3)nn2)N(C)C(=O)[C@H]2CCCN2C(=O)[C@H](Cc2ccccc2)NC(=O)[C@H](C)NC1=O (68Ga complex, metal not drawn) [Y2F]	−1.4 to −1.5	-1.5 ± 0.1	0.84 ± 0.07 %ID/g	1.62 ± 0.2 %ID/g	0.76 ± 0.06 %ID/g	107 ± 7.49 %ID/g	3.96 ± 1.16 %ID/g	2.09 ± 0.17 %ID/g	5.62 ± 1.34 %ID/g	0.66 ± 0.12 %ID/g	0.38 ± 0.04 %ID/g	2.51 ± 0.5 %ID/g	3.84 ± 1.14 %ID/g	6.99 ± 3.4 %ID/g	7.99 ± 1.62 %ID/g	9.6 ± 2.2	4.9 ± 1	10.6 ± 2	0.1	2.1 ± 0.5	tissue to tissue ratio at 1.5 h (in vivo; tumor/organ ratio Liver): 3.8 ± 0.9; tissue to tissue ratio at 1.5 h (in vivo; tumor/organ ratio Lung): 1.4 ± 0.2; tissue to tissue ratio at 1.5 h (in vivo; tumor/organ ratio Muscle): 12.2 ± 1.5; tissue to tissue ratio at 1.5 h (in vivo; tumor/organ ratio Pancreas): 20.8 ± 3.9; tissue to tissue ratio at 1.5 h (in vivo; [4]): 3.2 ± 0.4; tissue to tissue ratio at 1.5 h (in vivo; tumor/organ ratio Spleen): 2.2 ± 0.5; tissue to tissue ratio at 1.5 h (in vivo; [5]): 1.3 ± 0.3
CC(C)C[C@@H]1NC(=O)[C@H](CC(=O)O)NC(=O)CNC(=O)[C@H](CCCNC(=N)N)NC(=O)[C@H](Cc2ccccc2)NC(=O)[C@H](CCCCNC(=O)CCc2cn(CCCNC(=O)CCP(=O)(O)CN3CCN(CP(=O)(O)CCC(=O)NCCCn4cc(CCC(=O)NCCCC[C@H]5C(=O)N[C@@H](Cc6ccc(O)cc6)C(=O)N[C@@H](CCCNC(=N)N)C(=O)NCC(=O)N[C@@H](CC(=O)O)C(=O)N[C@@H](CC(C)C)C(=O)N[C@@H](C)C(=O)N[C@@H](Cc6ccccc6)C(=O)N6CCC[C@@H]6C(=O)N5C)nn4)CCN(CP(=O)(O)CCC(=O)NCCCn4cc(CCC(=O)NCCCC[C@H]5C(=O)N[C@@H](Cc6ccc(O)cc6)C(=O)N[C@@H](CCCNC(=N)N)C(=O)NCC(=O)N[C@@H](CC(=O)O)C(=O)N[C@@H](CC(C)C)C(=O)N[C@@H](C)C(=O)N[C@@H](Cc6ccccc6)C(=O)N6CCC[C@@H]6C(=O)N5C)nn4)CC3)nn2)N(C)C(=O)[C@H]2CCCN2C(=O)[C@H](Cc2ccccc2)NC(=O)[C@H](C)NC1=O (68Ga complex, metal not drawn) [Y2Y]	−1.4 to −1.5	-1.5 ± 0.1	1.07 ± 0.27 %ID/g	1.91 ± 0.49 %ID/g	0.85 ± 0.16 %ID/g	80.8 ± 5.12 %ID/g	3.89 ± 0.73 %ID/g	2.59 ± 0.35 %ID/g	7.02 ± 1.34 %ID/g	0.63 ± 0.12 %ID/g	0.44 ± 0.07 %ID/g	2.23 ± 0.41 %ID/g	4.36 ± 0.79 %ID/g	6.55 ± 1.48 %ID/g	7.93 ± 0.28 %ID/g	7.8 ± 1.7	4.4 ± 1.1	9.6 ± 1.8	0.1	2.1 ± 0.4	tissue to tissue ratio at 1.5 h (in vivo; tumor/organ ratio Liver): 3.1 ± 0.3; tissue to tissue ratio at 1.5 h (in vivo; tumor/organ ratio Lung): 1.2 ± 0.2; tissue to tissue ratio at 1.5 h (in vivo; tumor/organ ratio Muscle): 13 ± 2.5; tissue to tissue ratio at 1.5 h (in vivo; tumor/organ ratio Pancreas): 18.2 ± 2.3; tissue to tissue ratio at 1.5 h (in vivo; [4]): 3.6 ± 0.7; tissue to tissue ratio at 1.5 h (in vivo; tumor/organ ratio Spleen): 1.9 ± 0.4; tissue to tissue ratio at 1.5 h (in vivo; [5]): 1.3 ± 0.3
CC(C)C[C@@H]1NC(=O)[C@H](CC(=O)O)NC(=O)CNC(=O)[C@H](CCCNC(=N)N)NC(=O)[C@H](Cc2ccccc2)NC(=O)[C@H](CCCCNC(=O)CCc2cn(CCCNC(=O)CCP(=O)(O)CN3CCN(CP(=O)(O)CCC(=O)NCCCn4cc(CCC(=O)NCCCC[C@H]5C(=O)N[C@@H](Cc6ccccc6)C(=O)N[C@@H](CCCNC(=N)N)C(=O)NCC(=O)N[C@@H](CC(=O)O)C(=O)N[C@@H](CC(C)C)C(=O)N[C@@H](C)C(=O)N[C@@H](Cc6ccccc6)C(=O)N6CCC[C@@H]6C(=O)N5C)nn4)CCN(CP(=O)(O)CCC(=O)NCCCn4cc(CCC(=O)NCCCC[C@H]5C(=O)N[C@@H](Cc6ccc(O)cc6)C(=O)N[C@@H](CCCNC(=N)N)C(=O)NCC(=O)N[C@@H](CC(=O)O)C(=O)N[C@@H](CC(C)C)C(=O)N[C@@H](C)C(=O)N[C@@H](Cc6ccc(O)cc6)C(=O)N6CCC[C@@H]6C(=O)N5C)nn4)CC3)nn2)N(C)C(=O)[C@H]2CCCN2C(=O)[C@H](Cc2ccccc2)NC(=O)[C@H](C)NC1=O (68Ga complex, metal not drawn) [Y2]	−1.4 to −1.5	-1.5 ± 0.2	1.5 ± 1.28 %ID/g	2.26 ± 0.26 %ID/g	1.08 ± 0.13 %ID/g	92 ± 12.2 %ID/g	3.81 ± 0.53 %ID/g	3.37 ± 0.68 %ID/g	4.8 ± 0.5 %ID/g	0.72 ± 0.15 %ID/g	0.65 ± 0.12 %ID/g	2.55 ± 0.27 %ID/g	2.51 ± 0.33 %ID/g	7.17 ± 0.58 %ID/g	7.95 ± 1.02 %ID/g	8.8 ± 6.2	3.5 ± 0.5	7.4 ± 0.6	0.1	2.1 ± 0.2	tissue to tissue ratio at 1.5 h (in vivo; tumor/organ ratio Liver): 2.4 ± 0.4; tissue to tissue ratio at 1.5 h (in vivo; tumor/organ ratio Lung): 1.7 ± 0.2; tissue to tissue ratio at 1.5 h (in vivo; tumor/organ ratio Muscle): 11.4 ± 2.4; tissue to tissue ratio at 1.5 h (in vivo; tumor/organ ratio Pancreas): 12.7 ± 2.9; tissue to tissue ratio at 1.5 h (in vivo; [4]): 3.1 ± 0.5; tissue to tissue ratio at 1.5 h (in vivo; tumor/organ ratio Spleen): 3.2 ± 0.7; tissue to tissue ratio at 1.5 h (in vivo; [5]): 1.1 ± 0.1
